Measurements as given in US20090246189A1 (Biogen, published 2009).

Molecular target: T1, endogenous EGFR in mouse ventral midbrain (VM) tissue (mouse, UniProt Q01279 25-1210)
T1 construct: Native protein in a tissue extract
Assay: co-immunoprecipitation from mouse ventral midbrain extracts, Western blot
Experimental: COS-7 or HEK 293 cells (100 mm dishes) were transfected with Sp35, EGFR and Sp35/EGFR. The cells were harvested after 48 hours and lysed in 1 ml lysis buffer (50 mM HEPES, pH 7.5, 150 mM NaCl, 1.5 mM MgCl₂, 1 mM EDTA, 1% Triton x-100, 10% glycerol) or RIPA buffer (50 mM TRIS, pH 7.2, 1% Triton X-100, 0.5% sodium deoxycholate, 0.1% SDS, 150 mM NaCl, 10 mM MgCl₂, 5% glycerol) for 30 minutes at 4° C. After centrifugation at 14,000×g for 15 minutes, the supernatants were incubated with Protein A/G-Sepharose beads (Santa Cruz Biotechnology) at 4° C. for 1 hour, and then 200 μl of the precleared lystates were incubated with either anti-EGFR (Santa Cruz Biotechnology) at 4° C. for 1 hour, anti-Sp35 antibody (Biogen Idec, described in U.S. Provisional Patent Application No. 60/697,336, which is incorporated by reference herein in its entirety) followed by treatment with Protein A/G-Sepharose beads. The beads were washed 3 times with lysis buffer, boiled in Laemmeli sample buffer, subjected to 4-20% SDS-PAGE, and analyzed by Western blotting with anti-EGFR antibody or anti-Sp35 antibody. The EGFR and Sp35 antibodies were visualized using anti-rabbit IgG-HRP.
Sp35 KO or WT VMs were lysed in RIPA buffer and pre-cleared by Protein A/G plus-Sepharose beads as described above. […]

- binding result: binds
B1: endogenous Sp35 (LINGO-1) in mouse ventral midbrain (VM) tissue (receptor, UniProt Q9D1T0 36-614, looked up)
chain: CPPRCECSAQDRAVLCHRKRFVAVPEGIPTETRLLDLGKNRIKTLNQDEFASFPHLEELELNENIVSAVEPGAFNNLFNLRTLGLRSNRLKLIPLGVFTGLSNLTKLDISENKIVILLDYMFQDLYNLKSLEVGDNDLVYISHRAFSGLNSLEQLTLEKCNLTSIPTEALSHLHGLIVLRLRHLNINAIRDYSFKRLYRLKVLEISHWPYLDTMTPNCLYGLNLTSLSITHCNLTAVPYLAVRHLVYLRFLNLSYNPIGTIEGSMLHELLRLQEIQLVGGQLAVVEPYAFRGLNYLRVLNVSGNQLTTLEESAFHSVGNLETLILDSNPLACDCRLLWVFRRRWRLNFNRQQPTCATPEFVQGKEFKDFPDVLLPNYFTCRRAHIRDRKAQQVFVDEGHTVQFVCRADGDPPPAILWLSPRKHLVSAKSNGRLTVFPDGTLEVRYAQVQDNGTYLCIAANAGGNDSMPAHLHVRSYSPDWPHQPNKTFAFISNQPGEGEANSTRATVPFPFDIKTLIIATTMGFISFLGVVLFCLVLLFLWSRGKGNTKHNIEIEYVPRKSDAGISSADAPRKFNMKMI
notes: Native protein in a tissue extract; Sp35 knock-out VM served as the control
